Test results published in the supplement of paper PMC10567573.

B1: HDAC6 (parent)
chain: KMKTRELHRESSNFDSIYICPSTF
B2: CCNC (parent)
chain: QSSHYLQWILDKQDLLKERQKDLK
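Note: lentivirally expressed fusions sorted by FACS into six bins by GFP to DsRed ratio, PSI derived from sequencing read proportions per bin multiplied by bin number.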

Variants of: B1
Test: protein stability index of a GFP-peptide fusion (GPS, HEK-293T) (PSI 1-6); higher = more stable
Conditions: c terminus: a fixed tail appended
For KMKTRELHRESSNFCSIYICPSTF [D15C], the protein stability index was 2.82. With KMKTRELHRETSNFDSIYICPSTF [S11T] the protein stability index was 2.41. Variant IMKTRELHRESSNFDSIYICPSTF [K1I] has a protein stability index of 1.86. KMKTNELHRESSNFDSIYICPSTF [R5N] gave a protein stability index of 2.46. KMKTRELHRESSNFDSEYICPSTF [I17E] showed a protein stability index of 3.19. With KMKTRELHRESSNFDSIKICPSTF [Y18K] the protein stability index was 2.44. In the case of KMKTRELHNESSNFDSIYICPSTF [R9N], the protein stability index is reported as 2.4. In the case of KMKTRELHRCSSNFDSIYICPSTF [E10C], the protein stability index is reported as 2.18. With TMKTRELHRESSNFDSIYICPSTF [K1T] the protein stability index was 2.14. Variant KMKTRELDRESSNFDSIYICPSTF [H8D] has a protein stability index of 2.22. KMKTRYLHRESSNFDSIYICPSTF [E6Y] gave a protein stability index of 1.72. With KMKTRELHRESGNFDSIYICPSTF [S12G] the protein stability index was 3.05. KMKTRELHRESSNFDSIYMCPSTF [I19M] showed a protein stability index of 1.44. For KMKTRELHRESSNFDSIYICPSKF [T23K], the protein stability index was 2.25. With KMKTRELHREYSNFDSIYICPSTF [S11Y] the protein stability index was 1.98. Variant KMKTRELHRESINFDSIYICPSTF [S12I] has a protein stability index of 1.94. For KMKTRELHRESWNFDSIYICPSTF [S12W], the protein stability index was 2.17. KMKTRELHCESSNFDSIYICPSTF [R9C] showed a protein stability index of 2.39. Variant KMKTRELHRESSNFDNIYICPSTF [S16N] has a protein stability index of 1.31. KMKTRELHRESSNFDSIYILPSTF [C20L] showed a protein stability index of 2.2. KMATRELHRESSNFDSIYICPSTF [K3A] gave a protein stability index of 2.62. For KMKTRELHRESSWFDSIYICPSTF [N13W], the protein stability index was 1.93. Variant KMKTRELHRESSNCDSIYICPSTF [F14C] has a protein stability index of 2.24. In the case of KMKTRELHRESSNFDSNYICPSTF [I17N], the protein stability index is reported as 2.9. Variant KFKTRELHRESSNFDSIYICPSTF [M2F] has a protein stability index of 2.04. KMKTRELHRESPNFDSIYICPSTF [S12P] gave a protein stability index of 2.12. KMKTRELHRESSNFDSINICPSTF [Y18N] gave a protein stability index of 3.56. In the case of KMKTRNLHRESSNFDSIYICPSTF [E6N], the protein stability index is reported as 2.32. Variant KMKTRELHRESSNFDSHYICPSTF [I17H] has a protein stability index of 3.15. With KMKTRELHRESSNFDSIYICPSLF [T23L] the protein stability index was 2.21. KWKTRELHRESSNFDSIYICPSTF [M2W] showed a protein stability index of 2.21. With KMKTRELHRESSNFDSIYICPRTF [S22R] the protein stability index was 1.83. KMKTRELHRESSNMDSIYICPSTF [F14M] showed a protein stability index of 2.44. Variant KNKTRELHRESSNFDSIYICPSTF [M2N] has a protein stability index of 2.37. KMKERELHRESSNFDSIYICPSTF [T4E] gave a protein stability index of 1.99. KMKTRELHRESSNVDSIYICPSTF [F14V] showed a protein stability index of 2.68. In the case of KMKTRELHRESSNFDSIYICPSSF [T23S], the protein stability index is reported as 2.59. KMKTREIHRESSNFDSIYICPSTF [L7I] gave a protein stability index of 2. KMKTRELHRESSNFDSIYCCPSTF [I19C] gave a protein stability index of 2.34. KGKTRELHRESSNFDSIYICPSTF [M2G] showed a protein stability index of 2.33. Variant KMKTRELHRESSNKDSIYICPSTF [F14K] has a protein stability index of 3.03. With RMKTRELHRESSNFDSIYICPSTF [K1R] the protein stability index was 1.38. Variant KMKTRELHRESSNFDSIFICPSTF [Y18F] has a protein stability index of 2.05. In the case of KMKTRELHRESSNFDSIYICPPTF [S22P], the protein stability index is reported as 2.65. In the case of KMKTRELHRESSNFDSIYICPSTA [F24A], the protein stability index is reported as 3.73. For KMKTRELHRESSNFDSIYVCPSTF [I19V], the protein stability index was 2.8. KMKTRELHRESSNFDSIYIFPSTF [C20F] gave a protein stability index of 2.21. Work on KMKTRELHKESSNFDSIYICPSTF [R9K] yielded a protein stability index of 2.8. Variant KMKTRELHRESSAFDSIYICPSTF [N13A] has a protein stability index of 1.93. In the case of PMKTRELHRESSNFDSIYICPSTF [K1P], the protein stability index is reported as 2.58. KMKTRELHRESSNFDSIYICPSTE [F24E] gave a protein stability index of 3.87. In the case of KMKTRELHRYSSNFDSIYICPSTF [E10Y], the protein stability index is reported as 1.56. KMKTREFHRESSNFDSIYICPSTF [L7F] gave a protein stability index of 2.53. Work on KMKTRELHRDSSNFDSIYICPSTF [E10D] yielded a protein stability index of 2.03. KMKTRELWRESSNFDSIYICPSTF [H8W] gave a protein stability index of 1.83. For KMKTRELHRESSNFDEIYICPSTF [S16E], the protein stability index was 3.02. With KMKTRELHRESSNFVSIYICPSTF [D15V] the protein stability index was 2.11. Work on HMKTRELHRESSNFDSIYICPSTF [K1H] yielded a protein stability index of 1.9. KMKTIELHRESSNFDSIYICPSTF [R5I] showed a protein stability index of 1.83. For KMKTRELGRESSNFDSIYICPSTF [H8G], the protein stability index was 2.15. Work on KMKTRELHRESSNFDSIGICPSTF [Y18G] yielded a protein stability index of 3.09. KMKTRELHRESSNFDSIYICHSTF [P21H] showed a protein stability index of 1.34. KMKTRELHRESSNFDSIYLCPSTF [I19L] gave a protein stability index of 3.14. For KMKTRELHRESTNFDSIYICPSTF [S12T], the protein stability index was 2.17. Work on KMKTRELHRESSNFDDIYICPSTF [S16D] yielded a protein stability index of 2.68. KMKTRELHRESSNFDSGYICPSTF [I17G] gave a protein stability index of 2.51. With KMKIRELHRESSNFDSIYICPSTF [T4I] the protein stability index was 1.85. KMKTRELHRESSNFDCIYICPSTF [S16C] showed a protein stability index of 1.76. In the case of KMKTREKHRESSNFDSIYICPSTF [L7K], the protein stability index is reported as 3.11. KMKTRELHRESSNFDKIYICPSTF [S16K] gave a protein stability index of 2.29. KMKTRELVRESSNFDSIYICPSTF [H8V] showed a protein stability index of 2.6. KMKTRELHRESSNDDSIYICPSTF [F14D] gave a protein stability index of 2.79. KMKTRELHRESSNFDSDYICPSTF [I17D] gave a protein stability index of 3.75. Variant KMKTRELHRESSNFDSIYICPSPF [T23P] has a protein stability index of 2.61. KMKTRELHREESNFDSIYICPSTF [S11E] showed a protein stability index of 2.2. KMKTRELHRESSNFDSIYICPNTF [S22N] gave a protein stability index of 2.13. Variant KMHTRELHRESSNFDSIYICPSTF [K3H] has a protein stability index of 2.04. For KMKTRELHRTSSNFDSIYICPSTF [E10T], the protein stability index was 2.83. KMKTRELHRESSNFHSIYICPSTF [D15H] gave a protein stability index of 1.44. KMKTRELHRESSNFDSIYICPSRF [T23R] showed a protein stability index of 2.05. KMKTRELHRESSNFPSIYICPSTF [D15P] gave a protein stability index of 1.68. Variant KMKTRELTRESSNFDSIYICPSTF [H8T] has a protein stability index of 2.21. With KMKTRELHRESSNADSIYICPSTF [F14A] the protein stability index was 3.84. KMKTRELHREQSNFDSIYICPSTF [S11Q] gave a protein stability index of 2.36. KMKTRELHRESSNWDSIYICPSTF [F14W] gave a protein stability index of 2.01. For KMDTRELHRESSNFDSIYICPSTF [K3D], the protein stability index was 2.59. Variant KMKTRELHRESSNFDSIYICPSEF [T23E] has a protein stability index of 1.96. KMKTRELHRESSNFDSIYIHPSTF [C20H] showed a protein stability index of 2.94.

Variants of: B2
Test: as above
Conditions: c terminus: a fixed tail appended
ASSHYLQWILDKQDLLKERQKDLK [Q1A] showed a protein stability index of 2.78. CSSHYLQWILDKQDLLKERQKDLK [Q1C] showed a protein stability index of 3.1. In the case of DSSHYLQWILDKQDLLKERQKDLK [Q1D], the protein stability index is reported as 2.94. Variant ESSHYLQWILDKQDLLKERQKDLK [Q1E] has a protein stability index of 2.72. In the case of GSSHYLQWILDKQDLLKERQKDLK [Q1G], the protein stability index is reported as 3.6. HSSHYLQWILDKQDLLKERQKDLK [Q1H] gave a protein stability index of 2.04.
